The values below are quoted from earlier work in article PMC10991417.

The data set concerns the target Vasa CTD (Drosophila melanogaster) (UniProt P09052).
UniProt P09052, sequence (P09052 463-623): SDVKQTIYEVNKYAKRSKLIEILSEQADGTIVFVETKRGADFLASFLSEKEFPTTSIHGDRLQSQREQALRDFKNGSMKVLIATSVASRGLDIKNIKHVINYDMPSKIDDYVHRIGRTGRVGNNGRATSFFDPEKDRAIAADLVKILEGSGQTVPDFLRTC

As a reminder, the Kd is the constant that tells how readily two partners part at equilibrium. For the substance Oskar eLOTUS (from UniProt P25158), the Kd is 10 µM.
